How the values were obtained:
SRP (Escherichia coli) = SRP (Escherichia coli) (UniProt P0AGD7); conditions: cited from earlier work
[1] = target: SRP(MDCC): signal recognition particle with MDCC at position 235 in the G domain of Ffh (Escherichia coli) (UniProt P0AGD7); assay: other fluorescence titration; SRP(MDCC) 25 nM titrated with FtsY(Bpy); SRP bound to Lep50-RNC (10 nM); buffer A, 25 °C; apparent
[2] = target: SRP(MDCC): signal recognition particle with MDCC at position 235 in the G domain of Ffh (Escherichia coli) (UniProt P0AGD7); assay: stopped-flow FRET kinetics; 70S ribosomes (50 nM) in complex with SRP(MDCC) (500 nM) rapidly mixed with FtsY(Bpy) (1 µM); acceptor (Bpy) fluorescence; no SecYEG
[3] = target: SRP(MDCC): signal recognition particle with MDCC at position 235 in the G domain of Ffh (Escherichia coli) (UniProt P0AGD7); assay: other fluorescence titration; equilibrium titration monitored by FRET; SRP(MDCC) 25 nM titrated with FtsY(Bpy); SRP bound to 70S ribosomes (500 nM); buffer A, 25 °C; apparent
[4] = target: SRP(MDCC): signal recognition particle with MDCC at position 235 in the G domain of Ffh (Escherichia coli) (UniProt P0AGD7); assay: stopped-flow FRET kinetics; Lep50-RNC (30 nM) in complex with SRP(MDCC) (500 nM) rapidly mixed with FtsY(Bpy) (1 µM); no SecYEG
[5] = target: SRP(MDCC): signal recognition particle with MDCC at position 235 in the G domain of Ffh (Escherichia coli) (UniProt P0AGD7); assay: other fluorescence titration; as a22 (Lep75-RNC), with SecYEG in nanodiscs (300 nM); apparent
[6] = target: (Bpy)Lep50-RNC: stalled ribosome-nascent-chain complex with a nascent chain of leader peptidase (Lep) of 50 amino acids, Bodipy FL at the N-terminal methionine (Escherichia coli) (UniProt P00803); assay: other fluorescence titration; as a5, RNC in complex with FtsY (1 µM) and SecYEG in nanodiscs (increasing to saturating); apparent
[7] = target: (Bpy)Lep75-RNC: stalled ribosome-nascent-chain complex with a nascent chain of leader peptidase (Lep) of 75 amino acids, Bodipy FL at the N-terminal methionine (Escherichia coli) (UniProt P00803); assay: as above
Lep50- or Lep75-RNC [8] = assay: other fluorescence titration; equilibrium titration monitored by FRET; (Bpy)Lep-RNC 4 nM titrated with SRP(Alx), GDPNP 500 µM, buffer A, 25 °C; apparent; without SecYEG
[9] = target: (Bpy)Lep50-RNC: stalled ribosome-nascent-chain complex with a nascent chain of leader peptidase (Lep) of 50 amino acids, Bodipy FL at the N-terminal methionine (Escherichia coli) (UniProt P00803); assay: other fluorescence titration; as a5, in the presence of FtsY (1 µM) and SecY39EG in nanodiscs; apparent
[10] = target: (Bpy)Lep75-RNC: stalled ribosome-nascent-chain complex with a nascent chain of leader peptidase (Lep) of 75 amino acids, Bodipy FL at the N-terminal methionine (Escherichia coli) (UniProt P00803); assay: as above
Lep50- or Lep75-RNC [11] = assay: other fluorescence titration; as a5, in the presence of saturating amounts of SecYEG in nanodiscs; apparent
FtsY (Escherichia coli) = FtsY (Escherichia coli) (UniProt P10121); conditions: cited from earlier work

Chain of FtsY (P10121 2-497): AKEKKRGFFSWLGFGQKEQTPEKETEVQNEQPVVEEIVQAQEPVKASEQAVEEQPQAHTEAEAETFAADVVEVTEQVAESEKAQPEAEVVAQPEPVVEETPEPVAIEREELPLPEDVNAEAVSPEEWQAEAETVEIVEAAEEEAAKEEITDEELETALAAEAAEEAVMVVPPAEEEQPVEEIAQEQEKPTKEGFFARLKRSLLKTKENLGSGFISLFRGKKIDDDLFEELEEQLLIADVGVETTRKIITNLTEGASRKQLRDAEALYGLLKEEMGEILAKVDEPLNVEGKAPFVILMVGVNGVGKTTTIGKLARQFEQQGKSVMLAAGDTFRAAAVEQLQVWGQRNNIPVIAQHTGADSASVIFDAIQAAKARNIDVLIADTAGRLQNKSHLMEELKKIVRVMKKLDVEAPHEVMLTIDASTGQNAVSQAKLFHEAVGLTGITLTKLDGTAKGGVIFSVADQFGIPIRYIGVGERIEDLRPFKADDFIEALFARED
Chain of SecYEG (P0AGA2 whole entry): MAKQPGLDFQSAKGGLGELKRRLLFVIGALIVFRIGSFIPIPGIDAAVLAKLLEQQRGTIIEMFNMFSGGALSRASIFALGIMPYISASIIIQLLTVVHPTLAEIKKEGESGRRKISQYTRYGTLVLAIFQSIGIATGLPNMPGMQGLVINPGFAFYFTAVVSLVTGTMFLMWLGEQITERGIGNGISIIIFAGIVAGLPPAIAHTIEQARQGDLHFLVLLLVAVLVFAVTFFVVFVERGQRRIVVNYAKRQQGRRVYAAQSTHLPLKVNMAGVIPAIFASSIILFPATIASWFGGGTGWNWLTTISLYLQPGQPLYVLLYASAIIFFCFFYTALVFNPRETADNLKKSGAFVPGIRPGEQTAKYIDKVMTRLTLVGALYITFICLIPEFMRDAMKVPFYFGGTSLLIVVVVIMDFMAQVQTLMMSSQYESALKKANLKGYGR
Chain of SecYEG (P0AG96 whole entry, further chain): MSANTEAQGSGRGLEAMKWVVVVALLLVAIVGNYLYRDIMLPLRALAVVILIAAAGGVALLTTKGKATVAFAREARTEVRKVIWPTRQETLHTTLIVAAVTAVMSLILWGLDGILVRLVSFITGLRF
Chain of SecYEG (P0AG99 whole entry, further chain): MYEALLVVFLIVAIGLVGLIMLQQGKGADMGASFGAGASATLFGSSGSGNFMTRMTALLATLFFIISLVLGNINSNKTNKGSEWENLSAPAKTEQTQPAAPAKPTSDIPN

In the case of FtsY (from UniProt P10121), the Kd (SRP (Escherichia coli)) is listed as 500 nM.
“FtsY(Bpy): SRP receptor FtsY with Bodipy FL at position 487 in the N domain (from UniProt P10121 1-497)” showed a Kd [1] of 5 to 10 nM, a half-life time of association [2] of 15 s and a Kd [3] of 50 nM. It also gave an average half-life time of association [4] of 1 s, a Kd [5] of 40 nM and a fold increase of the appKd with SecYEG against without SecYEG [5] of 10 fold.
For “SRP(Alx): signal recognition particle with Alexa555 at position 430 in the M domain of SRP protein Ffh (from UniProt P0AGD7 1-453) (complex)”, the Kd [6] was 50 nM, the α (factor by which the appKd of SRP binding is increased by SecYEG–FtsY) [7] was 4 and the Kd (Lep50- or Lep75-RNC [8]) was 3 to 4 nM. The fold change of the apparent affinity with SecY39EG–FtsY [9] was under 5 fold, the fold change of the apparent affinity with SecY39EG–FtsY [10] was under 5 fold and the Kd (Lep50- or Lep75-RNC [11]) was 15 to 20 nM.
For SecYEG (from UniProt P0AGA2), the Kd (FtsY (Escherichia coli)) is given as 200 nM.

— paper PMC6028451
